Data: US11732029B2, “Methods and compositions for the treatment of wounds” (The University of Chicago, priority 2017, dated 2023)

What was measured:
Experiment in all cases: GF binding to recombinant laminin LG domain protein and synthesized laminin HBD peptides (ELISA)
Conditions in all cases: plate coated with LG domain protein or peptide, 1 μg/mL GF, vs BSA-coated wells
PDGF-BB = target: T1, PDGF-BB (Homo sapiens, UniProt P01127)
T1 construct: All growth factors (GFs) and chemokines were purchased in their mature forms; purchased PeproTech; host or cells: Escherichia coli
T1 sequence (P01127 82-190 limits assumed): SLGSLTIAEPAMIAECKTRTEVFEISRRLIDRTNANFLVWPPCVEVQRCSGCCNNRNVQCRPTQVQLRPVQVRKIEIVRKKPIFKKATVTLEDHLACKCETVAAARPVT
Protocol: (§1) ELISA tests were performed as described above. In brief, ELISA plates were coated with 1 μg/mL of laminin alpha 3 LG domain recombinant protein, laminin alpha 4 LG domain recombinant protein (R&D systems), laminin alpha 5 LG domain recombinant protein (LD BioPharma), or laminin peptide (sequences are described in Table 1, chemically synthesized by Genscript) in PBS for 2 hrs at 37° C. 1 μg/mL of BSA served as non-binding protein control. After blocking with 2% BSA PBS-0.05% Tween 20 (PBS-T) solution, 1 μg/mL of the recombinant human proteins (VEGF-A121, VEGF-A165, PlGF-1, PlGF-2, PDGF-BB or FGF-2) or 10 μg/mL of biotinylated heparin (Sigma-Aldrich) were added. Bound GF was detected with biotinylated antibodies for human VEGF, PlGF, PDGF-BB, or FGF-2 (R&D Systems). The antibodies were detected by streptavidin-HRP (R&D Systems).

VEGF-A165 = target: T2, VEGF-A165 (Homo sapiens, UniProt P15692)
T2 construct: All growth factors (GFs) and chemokines were purchased in their mature forms; purchased PeproTech; host or cells: Escherichia coli
T2 sequence (P15692 27-191 isoform P15692-4 limits assumed): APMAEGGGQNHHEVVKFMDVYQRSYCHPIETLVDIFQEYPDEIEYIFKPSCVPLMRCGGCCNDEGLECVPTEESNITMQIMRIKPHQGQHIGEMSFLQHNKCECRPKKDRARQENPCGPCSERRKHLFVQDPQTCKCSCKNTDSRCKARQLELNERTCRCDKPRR
Protocol: as §1

FGF-2 = FGF-2 (Homo sapiens, UniProt P09038); design: All growth factors (GFs) and chemokines were purchased in their mature forms; purchased PeproTech; host or cells: Escherichia coli
FGF-2, sequence (P09038 143-288): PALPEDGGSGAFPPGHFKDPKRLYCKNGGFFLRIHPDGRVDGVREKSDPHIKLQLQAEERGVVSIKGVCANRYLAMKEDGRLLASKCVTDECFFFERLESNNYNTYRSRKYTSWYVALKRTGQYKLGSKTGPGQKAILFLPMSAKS
Protocol: as §1

PlGF-1 = target: T3, PlGF-1 (Homo sapiens, UniProt P49763); design: All growth factors (GFs) and chemokines were purchased in their mature forms; purchased PeproTech; host or cells: Escherichia coli
T3 sequence (P49763 19-149 isoform P49763-2 limits assumed): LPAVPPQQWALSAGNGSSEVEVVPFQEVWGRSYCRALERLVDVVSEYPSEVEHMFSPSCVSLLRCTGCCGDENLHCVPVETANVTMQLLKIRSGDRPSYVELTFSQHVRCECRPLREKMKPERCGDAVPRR
Protocol: as §1

PlGF-2 = target: T4, PlGF-2 (Homo sapiens, UniProt P49763); design: All growth factors (GFs) and chemokines were purchased in their mature forms; purchased PeproTech; host or cells: Escherichia coli
T4 sequence (P49763 19-170 isoform P49763-3 limits assumed): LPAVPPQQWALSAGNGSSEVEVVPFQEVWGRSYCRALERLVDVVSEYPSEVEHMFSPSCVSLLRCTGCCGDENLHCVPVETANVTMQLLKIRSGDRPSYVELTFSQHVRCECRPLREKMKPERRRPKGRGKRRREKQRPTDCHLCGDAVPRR
Protocol: as §1

VEGF-A121 = target: T5, VEGF-A121 (Homo sapiens, UniProt P15692); design: All growth factors (GFs) and chemokines were purchased in their mature forms; purchased PeproTech; host or cells: Escherichia coli
T5 sequence (P15692 27-147 isoform P15692-9 limits assumed): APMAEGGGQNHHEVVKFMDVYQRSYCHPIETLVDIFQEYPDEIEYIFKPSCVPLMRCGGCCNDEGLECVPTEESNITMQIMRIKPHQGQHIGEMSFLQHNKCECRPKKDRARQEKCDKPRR
Protocol: as §1

B1: α4826-1816: laminin alpha 4 LG domain recombinant protein (R&D systems) (protein)
chain: QVSMMFDGQSAVEVHSRTSMDDLKAFTSLSLYMKPPVKRPELTETADQFILYLGSKNAKKEYMGLAIKNDNLVYVYNLGTKDVEIPLDSKPVSSWPAYFSIVKIERVGKHGKVFLTVPSLSSTAEEKFIKKGEFSGDDSLLDLDPEDTVFYVGGVPSNFKLPTSLNLPGFVGCLELATLNNDVISLYNFKHIYNMDPSTSVPCARDKLAFTQSRAASYFFDGSGYAVVRDITRRGKFGQVTRFDIEVRTPADNGLILLMVNGSMFFRLEMRNGYLHVFYDFGFSGGPVHLEDTLKKAQINDAKYHEISIIYHNDKKMILVVDRRHVKSMDNEKMKIPFTDIYIGGAPPEILQSRALRAHLPLDINFRGCMKGFQFQKKDFNLLEQTETLGVGYGCPEDSLISRRAYFNGQSFIASIQKISFFDGFEGGFNFRTLQPNGLLFYYASGSDVFSISLDNGTVIMDVKGIKVQSVDKQYNDGLSHFVISSVSPTRYELIVDKSRVGSKNPTKGKIEQTQASEKKFYFGGSPISAQYANFTGCISNAYFTRVDRDVEVEDFQRYTEKVHTSLYECPIESSPLFLLHKKGKNLSKPKASQNKKGGKSKDAPSWDPVALKLPERNTPRNSHCHLSNSPRAIEHAYQYGGTANSRQEFEHLKGDFGAKSQFSIRLRTRSSHGMIFYVSDQEENDFMTLFLAHGRLVYMFNVGHKKLKIRSQEKYNDGLWHDVIFIRERSSGRLVIDGLRVLEESLPPTEATWKIKGPIYLGGVAPGKAVKNVQINSIYSFSGCLSNLQLNGASITSASQTFSVTPCFEGPMETGTYFSTEGGYVVLDESFNIGLKFEIAFEVRPRSSSGTLVHGHSVNGEYLNVHMKNGQVIVKVNNGIRDFSTSVTPKQSLCDGRWHRITVIRDSNVVQLDVDSEVNHVVGPLNPKPIDHREPVFVGGVPESLLTPRLAPSKPFTGCIRHFVIDGHPVSFSKAALVSGAVSINSCPAA
binding to PDGF-BB (PDGF-BB): bound
binding to VEGF-A165 (VEGF-A165): bound
binding to FGF-2 (FGF-2): bound
binding to PlGF-1 (PlGF-1): did not show any binding
binding to PlGF-2 (PlGF-2): bound
binding to VEGF-A121 (VEGF-A121): did not show any binding

B2: α53026-3482: laminin alpha 5 LG domain recombinant protein (LD BioPharma) (protein)
chain: AIQVFLLGGSRKRVLVRVERATVYSVEQDNDLELADAYYLGGVPPDQLPPSLRRLFPTGGSVRGCVKGIKALGKYVDLKRLNTTGVSAGCTADLLVGRAMTFHGHGFLRLALSNVAPLTGNVYSGFGFHSAQDSALLYYRASPDGLCQVSLQQGRVSLQLLRTEVKTQAGFADGAPHYVAFYSNATGVWLYVDDQLQQMKPHRGPPPELQPQPEGPPRLLLGGLPESGTIYNFSGCISNVFVQRLLGPQRVFDLQQNLGSVNVSTGCAPALQAQTPGLGPRGLQATARKASRRSRQPARHPACMLPPHLRTTRDSYQFGGSLSSHLEFVGILARHRNWPSLSMHVLPRSSRGLLLFTARLRPGSPSLALFLSNGHFVAQMEGLGTRLRAQSRQRSRPGRWHKVSVRWEKNRILLVTDGARAWSQEGPHRQHQGAEHPQPHTLFVGGLPASSHSSKLP
binding to PDGF-BB (PDGF-BB): bound
binding to VEGF-A165 (VEGF-A165): bound
binding to FGF-2 (FGF-2): bound
binding to PlGF-1 (PlGF-1): did not show any binding
binding to PlGF-2 (PlGF-2): bound
binding to VEGF-A121 (VEGF-A121): did not show any binding
